Data as given in patent publication US20250297002A1 (SHANGHAI SINOBAY BIOTECHNOLOGY, published 2025).

Target: human CD47 (human, UniProt Q08722 19-323)
Assay: cell-based or functional assay

| Binder | tumor killing activity on SK-OV3 cells with T cells (luciferase), compared with clone No. 100 [fold] | tumor killing activity on SK-OV3 cells with T cells (luciferase), compared with the T cell control group [fold] | tumor killing activity on SK-OV3 cells with T cells (luciferase), compared with the positive control antibody (B6H12-αCD3-BITE) [fold] | tumor killing activity on NCI-H292 cells with T cells (luciferase), compared with clone No. 100 [fold] | tumor killing activity on NCI-H292 cells with T cells (luciferase), compared with the T cell control group [fold] | tumor killing activity on NCI-H292 cells with T cells (luciferase), compared with the positive control antibody (B6H12-αCD3-BITE) [fold] |
| --- | --- | --- | --- | --- | --- | --- |
| Hu004-68-αCD3-BITE (bispecific antibody) EVQLVESGGGLVQPGGSLRLSCAASGFTFSGYGMSWVRQAPGKGLEWVATITSGGTYTYYPDSVKGRFTISRDNAKNSLYLQMNSLRAEDTAVYYCARSLAGNAMDYWGQGTLVTVSSGGGGSGGGGSGGGGSQVQLVQSGAEVKKPGASVKVSCKASGYTFTRYTMHWVRQAPGQGLEWMGYINPSRGYTNYNQKFKDRVTITADKSTSTAYMELSSLRSEDTAVYYCARYYDDHYCLDYWGQGTTVTVSSGGGGSGGGGSGGGGSEIVLTQSPATLSLSPGERATLSCSASSSVSYMNWYQQKPGKAPKRLIYDTSKLASGVPSRFSGSGSGTDFTLTINSLEAEDAATYYCQQWSSNPFTFGQGTKVEIKGGGGSGGGGSGGGGSEIVLTQSPVTLSVSPGERATLSCRASQGVTSNLAWYQQKPGQAPRLLIYGASTRATGVPARFSGSGSGTEFTLTISSLQSEDFAVYYCQHRGTFGQGTKVDIK | 2 | 3.5 | 1.5 |  |  |  |
| Hu004-101-αCD3-BITE (bispecific antibody) EVQLVESGGGLVQPGGSLRLSCAASGFTFSGYGMSWVRQAPGKGLEWVATITSGGTYTYYPDSVKGRFTISRDNAKNSLYLQMNSLRAEDTAVYYCARSLAGNAMDYWGQGTLVTVSSGGGGSGGGGSGGGGSQVQLVQSGAEVKKPGASVKVSCKASGYTFTRYTMHWVRQAPGQGLEWMGYINPSRGYTNYNQKFKDRVTITADKSTSTAYMELSSLRSEDTAVYYCARYYDDHYCLDYWGQGTTVTVSSGGGGSGGGGSGGGGSEIVLTQSPATLSLSPGERATLSCSASSSVSYMNWYQQKPGKAPKRLIYDTSKLASGVPSRFSGSGSGTDFTLTINSLEAEDAATYYCQQWSSNPFTFGQGTKVEIKGGGGSGGGGSGGGGSDIQMTQSPSTLSASVGDRVTITCRASQSISNWLAWYQQKPGEAPKLLIYKASNLESGVPSRFSGSGSGTEFTLTISSLQPDDFATYYCQQFGTFGQGTKVEIK |  |  |  | 1.2 | 4 | 1.2 |
